# Read-outs that look alike come from different tables or passages of the source.
# Legend:
# [1] = biological target: Id (pBIND-Id, fusion with the DNA-binding domain of yeast gal4); assay: two-hybrid
# [2] = biological target: Id (pBIND-Id, fusion with the DNA-binding domain of yeast gal4); assay: two-hybrid; remark: listed apart in the source
substance,measurement,setting,value
"MyoD (pACT-MyoD, fusion with the VP16 transactivation domain of herpes simplex virus) (natural protein)",luciferase reporter activation over basal (two-hybrid),[1],70 fold
same,luciferase reporter activation over basal (two-hybrid),[2],10 fold
